From patent publication US20030211537A1 (ARCH DEVELOPMENT, published 2003)
Starred links: 1 amine or outer side, 2 acyl side, 3 side chain; linkers in the order of their positions; H or OH if unused. Non-standard residues stand in square brackets, D forms with d. No end group written: not given here. Tyr(125I) = 125I-labelled Tyr, O=C([C@H](Cc1ccc(O[*:3])c([125I])c1)N[*:1])[*:2]

T1: κ1-78/δ70-372 chimeric opioid receptor (mouse)
T1 construct: Expressed in COS-7 cells, membranes assayed
T1 chain: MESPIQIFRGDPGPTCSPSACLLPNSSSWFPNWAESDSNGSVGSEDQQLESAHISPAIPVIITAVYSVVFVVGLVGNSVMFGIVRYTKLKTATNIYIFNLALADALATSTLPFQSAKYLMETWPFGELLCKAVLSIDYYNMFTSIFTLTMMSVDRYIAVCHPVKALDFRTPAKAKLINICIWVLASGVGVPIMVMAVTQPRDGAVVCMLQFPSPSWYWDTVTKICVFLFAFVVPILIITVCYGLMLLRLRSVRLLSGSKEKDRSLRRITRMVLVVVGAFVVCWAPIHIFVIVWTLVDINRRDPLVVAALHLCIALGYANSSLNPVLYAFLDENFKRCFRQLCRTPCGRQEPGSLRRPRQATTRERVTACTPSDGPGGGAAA


What was measured:
[1] = biological target: T2, mouse kappa opioid receptor (mORK1) (mouse, UniProt P33534 1-380); experiment: radioligand binding, COS-1 membranes
T2 construct: Assayed in membranes of transfected COS-1, PC12 or COS-7 cells; also called msl-1; κ receptor

[2] = biological target: T3, mouse delta opioid receptor (mORD1) (mouse, UniProt P32300 1-372); experiment: radioligand binding, COS-1 membranes
T3 construct: Assayed in membranes of transfected COS-1, CHO-DG44 or COS-7 cells; also called msl-2; δ receptor

[3] = biological target: T2, mouse kappa opioid receptor (mORK1); experiment: competition vs [3H]U-69,593, PC12 membranes
Description: (§1) Receptor binding assays were performed using membranes from either PC12 cells stably expressing the cloned mouse K receptor, CHO-DG44 cells stably expressing the mouse 8 receptor, or COS-7 cells transiently expressing the rat μ receptor 48-72 hours after transfection as previously described (4,10). For radioligand binding assays, cells were harvested in 50 mM Tris-HCl (pH 7.8) containing 1 mM ethylene glycol bis(β-aminoethyl ether)-N,N′-tetraacctic acid, 5 mM MgCl₂, 10 μg/ml leupeptin, 10 μg/ml pepstatin 200 μg/ml bacitracin and 0.5 μg/ml aprotinin (buffer 1) and centrifuged at 24,000 K g for 7 min at 4° C. The pellet was homogenized in buffer 1 using a Polytron (Brinkmann, setting 2.5 30 sec). The Homogenate was then centrifuged at 48,000 κ g for 20 min at 4° C. The pellet was homogenized in buffer 1 and this membrane preparation was used for the radioligand binding studies. […] The binding reaction was terminated by the addition of ice-cold 50 mM Tris-HCl buffer (pH 7.8) and rapid filtration over Whatman GF/B glass fiber filters which were pretreated with 0.5% polyethyleneimine/0.1% BSA for at least 1 hour. The filters were then washed with 12 mL of ice-cold Tris-HCl buffer and the bound radioactivity counted in a scintillation counter. Data from radioligand binding studies were used to generate inhibition curves.

[4] = biological target: cloned human µ opioid receptor (human, UniProt P35372 1-400); experiment: competition vs [3H]DAMGO, COS-7 membranes
Chain of cloned human µ opioid receptor (P35372 whole entry): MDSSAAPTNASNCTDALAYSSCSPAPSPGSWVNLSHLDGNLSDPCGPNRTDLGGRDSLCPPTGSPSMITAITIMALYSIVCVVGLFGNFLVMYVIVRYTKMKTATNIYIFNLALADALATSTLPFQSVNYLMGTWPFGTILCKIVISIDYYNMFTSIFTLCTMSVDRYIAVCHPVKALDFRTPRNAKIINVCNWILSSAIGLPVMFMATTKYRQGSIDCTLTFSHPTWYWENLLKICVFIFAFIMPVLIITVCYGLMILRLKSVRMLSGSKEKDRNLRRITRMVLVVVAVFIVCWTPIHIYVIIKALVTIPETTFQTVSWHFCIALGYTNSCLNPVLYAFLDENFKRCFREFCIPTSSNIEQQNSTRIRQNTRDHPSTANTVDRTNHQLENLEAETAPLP
Description: For radioligand binding assays, cells were harvested in 50 mM Tris-HCl (pH 7.8) containing 1 mM ethylene glycol bis(b-aminoethyl ether)-N,N′-tetraacetic acid, 5 mM MgCl₂, 10 mg/ml leupeptin, 10 mg/ml pepstatin, 200 mg/ml bacitracin and 0.5 mg/ml aprotinin (buffer 1) and centrifuged at 24,000×g for 7 min at 4° C. The pellet was homogenized in buffer 1 using a Polytron (Brinkmann, setting 2.5, 30 sec). The homogenate was then centrifuged at 48,000×g for 20 min at 4° C. The pellet was homogenized in buffer 1 and this membrane preparation was used for the radioligand binding studies. […] The binding reaction was terminated by the addition of ice-cold 50 mM Tris-HCl buffer (pH 7.8) and rapid filtration over Whatman GF/B glass fiber filters which were pretreated with 0.5% polyethyleneimine/0.1% BSA for at least 1 hour. The filters were then washed with 12 mL of ice-cold Tris-HCl buffer and the bound radioactivity counted in a scintillation counter. Data from radioligand binding 10 studies were used to generate inhibition curves.

[5] = biological target: T3, mouse delta opioid receptor (mORD1); experiment: competition vs [3H]naltrindole, CHO-DG44 membranes
Description: as §1

rat µ opioid receptor = biological target: T4, rat µ opioid receptor (rat, UniProt P33535 1-398); experiment: competition vs [3H]DAMGO, COS-7 membranes
T4 construct: whole, on cells; Assayed in membranes of transfected COS-7 cells; also called cloned µ receptor; rat µ receptor
T4 sequence (P33535 whole entry): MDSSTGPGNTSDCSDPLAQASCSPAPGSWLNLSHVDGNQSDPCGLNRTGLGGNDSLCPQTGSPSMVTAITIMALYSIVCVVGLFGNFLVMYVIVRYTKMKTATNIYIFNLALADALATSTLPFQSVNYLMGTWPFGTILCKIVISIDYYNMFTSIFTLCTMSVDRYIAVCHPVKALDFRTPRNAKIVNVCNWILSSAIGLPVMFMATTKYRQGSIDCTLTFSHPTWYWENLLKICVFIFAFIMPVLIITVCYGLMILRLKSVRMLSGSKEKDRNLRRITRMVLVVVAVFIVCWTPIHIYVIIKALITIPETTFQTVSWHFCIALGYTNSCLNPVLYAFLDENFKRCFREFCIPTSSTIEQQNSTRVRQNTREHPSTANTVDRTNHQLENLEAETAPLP
Description: as §1

[6] = biological target: T1, κ1-78/δ70-372 chimeric opioid receptor; experiment: competition vs [3H]naloxone, COS-7 membranes
Description: The homogenate is centrifuged at 48,000×g for 20 min at 4° C. and the pellet resuspended in Buffer 1 and used in the radioligand binding assay. […] All radioligands were obtained from NEN/Dupont (Boston, Mass.). […] The binding reaction is terminated by the addition of ice-cold 50 mM Tris-HCL (pH 7.8) and rapid filtration over Whatman GF/B glass fiber filters that were pretreated with 0.5% polyethleneimine and 0.1% bovine serum albumin. The filters were washed with 12 ml of ice-cold buffer and soaked overnight in scintillation fluid. The bound radioactivity was determined using a scintillation counter.

Row | Binder | Ki [3] [nM] | Ki [4] [nM] | Ki [5] [nM] | Ki (rat µ opioid receptor) [nM] | also measured
1 | AGCKNFFWKT[Tyr(125I)]TSC (peptide, UniProt P61278 103-116, looked up, ends and bridges not checked) [[125I-Tyr11] SRIF] | – | – | – | – | binding result [1]: no binding; binding result [2]: no binding
2 | YGGFM (peptide, UniProt P01210 100-104, looked up, domain: Met-enkephalin) [Met-enkephalin] | > 1000 | – | – | – | –
3 | FCYWXTXT (D-Phe at 1, D-Trp at 4, Orn at 5 (printed Om), Pen at 7, C-terminal NH2; X in the letters stands for Orn 5 and Pen 7) [CTOP (D-Phe-Cys-Tyr-D-Trp-Orn-Thr-Pen-Thr-NH2)] | – | 3.9 | – | – | –
4 | GGFMTSEKSQTPLVTLFKNAIIKNAYKKGE (peptide, UniProt P01189 238-267, looked up, domain: des-Tyr1-β-endorphin; also called des-Tyrl-β-endorphin) [des-Tyr1-β-endorphin] | > 1000 | > 1000 | > 1000 | > 1000 | –
5 | YGGFLRRIRPKLKWDNQ (peptide, UniProt P01213 207-223, looked up) [dynorphin (form not specified)] | – | – | – | – | IC50 [6]: 40 nM
6 | YGGFMTSEKSQTPLVTLFKNAIIKNAYKKGE (peptide, UniProt P01189 237-267, looked up, also: 125I-labelled where used as radioligand, site not given here, domain: β-Endorphin; also called beta-endorphin) [β-Endorphin (human)] | – | – | 1 | 1 | –
